Patent publication US20250340655A1, “EPHA2-TARGETING ANTIBODIES AND THEIR APPLICATIONS IN CANCER TREATMENT” (TAIPEI MEDICAL UNIVERSITY, priority 2022, published 2025)

T1: EphA3 overexpressed on 293T cells (UniProt P29320 21-983, limits assumed)
T1 construct: whole, on cells
T1 sequence (looked up): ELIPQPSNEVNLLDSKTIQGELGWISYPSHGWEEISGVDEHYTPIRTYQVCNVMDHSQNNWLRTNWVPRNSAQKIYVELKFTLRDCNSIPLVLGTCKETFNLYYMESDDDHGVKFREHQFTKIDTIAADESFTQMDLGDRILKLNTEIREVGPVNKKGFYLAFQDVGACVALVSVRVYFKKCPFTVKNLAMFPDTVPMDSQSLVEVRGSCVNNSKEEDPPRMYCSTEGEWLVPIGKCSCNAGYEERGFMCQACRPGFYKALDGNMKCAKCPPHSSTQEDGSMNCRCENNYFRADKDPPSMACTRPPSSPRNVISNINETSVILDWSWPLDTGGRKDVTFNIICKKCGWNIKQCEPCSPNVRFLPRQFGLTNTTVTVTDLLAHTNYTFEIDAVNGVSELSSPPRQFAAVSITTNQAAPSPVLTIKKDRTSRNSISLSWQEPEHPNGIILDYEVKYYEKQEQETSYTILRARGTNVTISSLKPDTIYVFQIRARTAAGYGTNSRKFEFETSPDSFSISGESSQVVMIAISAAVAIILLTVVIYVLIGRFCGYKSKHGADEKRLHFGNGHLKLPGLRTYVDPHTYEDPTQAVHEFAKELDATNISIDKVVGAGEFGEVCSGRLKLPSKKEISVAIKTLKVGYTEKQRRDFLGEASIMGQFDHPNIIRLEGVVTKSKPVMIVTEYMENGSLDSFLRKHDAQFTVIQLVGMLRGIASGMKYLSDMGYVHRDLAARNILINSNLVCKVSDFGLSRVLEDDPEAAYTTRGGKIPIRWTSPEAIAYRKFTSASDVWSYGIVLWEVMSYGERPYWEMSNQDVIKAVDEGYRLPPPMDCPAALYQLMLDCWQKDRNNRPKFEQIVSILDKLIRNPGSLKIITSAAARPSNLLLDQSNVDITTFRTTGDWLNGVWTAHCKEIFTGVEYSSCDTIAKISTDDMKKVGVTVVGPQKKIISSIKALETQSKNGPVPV

T2: EphA8 overexpressed on 293T cells (UniProt P29322 28-1005, limits assumed)
T2 construct: whole, on cells
T2 sequence (looked up): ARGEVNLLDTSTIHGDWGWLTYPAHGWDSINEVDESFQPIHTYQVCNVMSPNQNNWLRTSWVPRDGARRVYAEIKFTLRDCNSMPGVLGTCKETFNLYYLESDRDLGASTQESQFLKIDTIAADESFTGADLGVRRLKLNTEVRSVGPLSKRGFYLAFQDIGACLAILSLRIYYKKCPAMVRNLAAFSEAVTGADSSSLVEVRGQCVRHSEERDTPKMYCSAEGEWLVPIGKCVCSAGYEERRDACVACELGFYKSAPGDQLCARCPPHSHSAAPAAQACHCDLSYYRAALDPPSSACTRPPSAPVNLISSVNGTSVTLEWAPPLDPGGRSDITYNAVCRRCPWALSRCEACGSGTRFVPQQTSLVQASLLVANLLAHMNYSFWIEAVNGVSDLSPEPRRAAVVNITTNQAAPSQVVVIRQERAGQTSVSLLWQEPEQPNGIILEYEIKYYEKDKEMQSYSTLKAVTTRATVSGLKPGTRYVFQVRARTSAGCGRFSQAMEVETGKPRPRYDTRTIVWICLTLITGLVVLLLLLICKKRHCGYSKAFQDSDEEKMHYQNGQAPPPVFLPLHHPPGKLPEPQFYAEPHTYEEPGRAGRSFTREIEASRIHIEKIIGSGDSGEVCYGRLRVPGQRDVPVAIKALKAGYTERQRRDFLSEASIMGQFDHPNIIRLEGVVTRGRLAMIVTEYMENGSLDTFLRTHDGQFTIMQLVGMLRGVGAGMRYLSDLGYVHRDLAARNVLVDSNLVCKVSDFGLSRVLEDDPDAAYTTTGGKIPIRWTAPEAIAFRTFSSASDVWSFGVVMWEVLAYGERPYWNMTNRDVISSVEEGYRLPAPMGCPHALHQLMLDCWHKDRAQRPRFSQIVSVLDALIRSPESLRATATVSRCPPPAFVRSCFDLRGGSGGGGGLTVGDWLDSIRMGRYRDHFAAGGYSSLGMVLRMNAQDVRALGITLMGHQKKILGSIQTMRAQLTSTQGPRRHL

B1: IgG hSD5: complete humanized anti-EphA2 IgG (IgG1) of hSD5 (antibody, V domains shown)
VH: QVQLVESGGGLVQPGGSLRLSCAASGFTFSDYGMGWVRQAPGKGLEWVAGISAAGSFTPYGAAVKGRFTISRDNSKNTVYLQMNSLRAEDTAVYYCARIPSGYRAGEIYTWGQGTLVTVSS
VL: LTQPPSVSVSPGQTVRITCSGSSGSYGWYQQKSPGQAPVTLIYDNDKRPSGIPERFSGSSSGSTSTLTISGVQAEDEADYYCGSADSSTYVGMFGGGTKLTVL
B2: Humanized scFv hSD5 (scFv)
scFv: LTQPPSVSVSPGQTVRITCSGSSGSYGWYQQKSPGQAPVTLIYDNDKRPSGIPERFSGSSSGSTSTLTISGVQAEDEADYYCGSADSSTYVGMFGGGTKLTVLGQSSRSSQVQLVESGGGLVQPGGSLRLSCAASGFTFSDYGMGWVRQAPGKGLEWVAGISAAGSFTPYGAAVKGRFTISRDNSKNTVYLQMNSLRAEDTAVYYCARIPSGYRAGEIYTWGQGTLVTVSS
notes: also called hSD5 scFv; Humanized scFv hSDS

Key:
[1] = biological target: T3, endogenous EphA2 molecule on colon cancer cells (HCT116, SW480 and SW460) (Homo sapiens, UniProt P29317); experiment: Flow cytometry binding on colon cancer cells; details: flow cytometry (FIG. 18B)
T3 construct: endogenous in cells; host or cells: HCT116, SW480, SW460
T3 sequence (P29317 24-976): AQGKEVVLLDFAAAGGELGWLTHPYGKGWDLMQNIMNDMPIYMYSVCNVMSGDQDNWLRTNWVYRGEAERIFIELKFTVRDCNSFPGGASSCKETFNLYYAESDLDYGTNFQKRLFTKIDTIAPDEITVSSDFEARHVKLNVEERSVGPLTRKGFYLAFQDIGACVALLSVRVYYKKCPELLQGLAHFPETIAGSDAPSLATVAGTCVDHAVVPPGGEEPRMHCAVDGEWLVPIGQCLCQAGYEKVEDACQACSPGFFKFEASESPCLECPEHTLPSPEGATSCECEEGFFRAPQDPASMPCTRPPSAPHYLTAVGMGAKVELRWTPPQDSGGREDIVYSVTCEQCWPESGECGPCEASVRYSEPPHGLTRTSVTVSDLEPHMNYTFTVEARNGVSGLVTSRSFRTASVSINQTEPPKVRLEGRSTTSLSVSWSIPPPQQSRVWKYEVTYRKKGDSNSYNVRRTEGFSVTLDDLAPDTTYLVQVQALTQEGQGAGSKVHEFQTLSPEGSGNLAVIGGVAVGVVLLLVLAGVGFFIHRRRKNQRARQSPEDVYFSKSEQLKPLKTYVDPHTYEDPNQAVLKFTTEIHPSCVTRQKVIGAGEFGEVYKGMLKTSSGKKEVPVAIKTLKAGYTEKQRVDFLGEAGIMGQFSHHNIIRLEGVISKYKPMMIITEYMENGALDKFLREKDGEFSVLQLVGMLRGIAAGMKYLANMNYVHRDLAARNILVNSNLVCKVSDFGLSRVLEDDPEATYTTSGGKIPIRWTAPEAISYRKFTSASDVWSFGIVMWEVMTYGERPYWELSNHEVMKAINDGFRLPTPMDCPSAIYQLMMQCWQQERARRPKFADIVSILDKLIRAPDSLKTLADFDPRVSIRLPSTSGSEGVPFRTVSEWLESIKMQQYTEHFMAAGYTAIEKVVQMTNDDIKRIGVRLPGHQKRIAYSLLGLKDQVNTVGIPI

[2] = biological target: T1, EphA3 overexpressed on 293T cells; experiment: flow cytometry on 293T cells overexpressing EphA1-A8
Protocol: (§1) To detect the binding specificity of scFv, 293T cells were transformed with EphA1-A8 plasmids individually for overexpression of different EphA molecules. The cell line was freshly prepared and washed with FACS buffer (2% FBS in PBS). The cells were seeded at 1×10⁵ cells/well into a 96-well Ubottom plate and incubated with scFv for 1 h at 4° C. After the plate was washed with FACS buffer, the anti-hemagglutinin (HA) antibody was added for scFv binding detection (scFv was fused with a HA tag) and subsequently developed using an FITC-conjugated secondary antibody. Finally, the cell binding signal was analyzed using a FACS can flow cytometer.

[3] = biological target: T2, EphA8 overexpressed on 293T cells; experiment: as above
Protocol: as §1

Molecule	binding response to EphA2 molecules on cancer cells [1]	binding result [2]	binding result [3]
B1	significant binding response	–	–
B2	–	no binding	no binding
